Source: publication PMC11153517

How the values were obtained:
[1] = molecular target: human tumor necrosis factor (TNF)-α (human) (UniProt P01375)
[2] = molecular target: human tumor necrosis factor (TNF)-α (human) (UniProt P01375); remark: listed apart in the source

Chain of UniProt P01375 (P01375 whole entry): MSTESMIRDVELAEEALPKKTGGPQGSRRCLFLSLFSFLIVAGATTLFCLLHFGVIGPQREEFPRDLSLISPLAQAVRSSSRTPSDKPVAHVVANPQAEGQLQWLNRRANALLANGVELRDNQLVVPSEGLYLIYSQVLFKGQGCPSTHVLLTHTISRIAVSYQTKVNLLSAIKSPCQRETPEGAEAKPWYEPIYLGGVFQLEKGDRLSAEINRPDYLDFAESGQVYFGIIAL

Q: Which results are given for PIYLGGVFQ [peptide …]?
A: apoptosis of Wehi-164 cells with TNFα (100 ng/ml) and actinomycin D, MTT assay, 20 h; peptide 50, 100 and 200 μM premixed with TNFα; 70% cell death with TNFα and AcD without the peptide [1]: 26.4 % apoptosis; inhibition of TNFα-induced NFκB (p65) nuclear translocation in A549 cells, Western blot of nuclear extract; peptide 50, 100 and 200 μM (49%, 56% and 65%) [2]: 65 % inhibition
